Values of other authors, collected in PMC8125740.
pKd: −log10 of the molar value.

Molecular target: Amyloid beta (Homo sapiens) (UniProt P05067)

Substance: Cellular prion protein (from UniProt P04156)
- pKd: 9.00
